# From paper PMC7288244
# Columns and labels:
# [1] = biological target: Human Recombinant FcγR receptor IIA/CD32a (human) (UniProt P12318); assay: ELISA
# the FcγR = assay: fluorescence correlation spectroscopy
# Chain of UniProt P12318 (P12318 34-217): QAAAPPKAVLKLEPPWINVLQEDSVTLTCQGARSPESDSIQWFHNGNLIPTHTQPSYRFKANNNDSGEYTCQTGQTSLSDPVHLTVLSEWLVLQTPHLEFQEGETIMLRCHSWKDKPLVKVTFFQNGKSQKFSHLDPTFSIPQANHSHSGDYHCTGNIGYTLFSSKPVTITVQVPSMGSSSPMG
Substance,EC50 [1] [nM],stoichiometry N (the FcγR)
immune complex of N5-i5-LALA with FLSC,6,–
immune complex of C11-LALA with FLSC,0.6,–
human IgG1 mAb C11-LALA (antibody),–,1
human IgG1 mAb N5-i5-LALA (antibody),–,1
